Experimental data taken from US20150291681A1 (published 2015).
Each block holds one binder with its values, some of them ahead of it.

Key:
[1] = molecular target: T1, EGFP labeled Notch (Drosophila Notch stably expressed on S2 cells) (Drosophila, UniProt P07207 53-2703); test: S2 cell aggregation; Sertom DNA transfected into Notch-EGFP cells (cis), competitor of Sertom cells (trans)
T1 construct: whole, on cells; how EGFP is joined to Notch is not described; also called Notch+EGFP; N+EGFP; not shown: EGFP label
T1 sequence (P07207 53-2703): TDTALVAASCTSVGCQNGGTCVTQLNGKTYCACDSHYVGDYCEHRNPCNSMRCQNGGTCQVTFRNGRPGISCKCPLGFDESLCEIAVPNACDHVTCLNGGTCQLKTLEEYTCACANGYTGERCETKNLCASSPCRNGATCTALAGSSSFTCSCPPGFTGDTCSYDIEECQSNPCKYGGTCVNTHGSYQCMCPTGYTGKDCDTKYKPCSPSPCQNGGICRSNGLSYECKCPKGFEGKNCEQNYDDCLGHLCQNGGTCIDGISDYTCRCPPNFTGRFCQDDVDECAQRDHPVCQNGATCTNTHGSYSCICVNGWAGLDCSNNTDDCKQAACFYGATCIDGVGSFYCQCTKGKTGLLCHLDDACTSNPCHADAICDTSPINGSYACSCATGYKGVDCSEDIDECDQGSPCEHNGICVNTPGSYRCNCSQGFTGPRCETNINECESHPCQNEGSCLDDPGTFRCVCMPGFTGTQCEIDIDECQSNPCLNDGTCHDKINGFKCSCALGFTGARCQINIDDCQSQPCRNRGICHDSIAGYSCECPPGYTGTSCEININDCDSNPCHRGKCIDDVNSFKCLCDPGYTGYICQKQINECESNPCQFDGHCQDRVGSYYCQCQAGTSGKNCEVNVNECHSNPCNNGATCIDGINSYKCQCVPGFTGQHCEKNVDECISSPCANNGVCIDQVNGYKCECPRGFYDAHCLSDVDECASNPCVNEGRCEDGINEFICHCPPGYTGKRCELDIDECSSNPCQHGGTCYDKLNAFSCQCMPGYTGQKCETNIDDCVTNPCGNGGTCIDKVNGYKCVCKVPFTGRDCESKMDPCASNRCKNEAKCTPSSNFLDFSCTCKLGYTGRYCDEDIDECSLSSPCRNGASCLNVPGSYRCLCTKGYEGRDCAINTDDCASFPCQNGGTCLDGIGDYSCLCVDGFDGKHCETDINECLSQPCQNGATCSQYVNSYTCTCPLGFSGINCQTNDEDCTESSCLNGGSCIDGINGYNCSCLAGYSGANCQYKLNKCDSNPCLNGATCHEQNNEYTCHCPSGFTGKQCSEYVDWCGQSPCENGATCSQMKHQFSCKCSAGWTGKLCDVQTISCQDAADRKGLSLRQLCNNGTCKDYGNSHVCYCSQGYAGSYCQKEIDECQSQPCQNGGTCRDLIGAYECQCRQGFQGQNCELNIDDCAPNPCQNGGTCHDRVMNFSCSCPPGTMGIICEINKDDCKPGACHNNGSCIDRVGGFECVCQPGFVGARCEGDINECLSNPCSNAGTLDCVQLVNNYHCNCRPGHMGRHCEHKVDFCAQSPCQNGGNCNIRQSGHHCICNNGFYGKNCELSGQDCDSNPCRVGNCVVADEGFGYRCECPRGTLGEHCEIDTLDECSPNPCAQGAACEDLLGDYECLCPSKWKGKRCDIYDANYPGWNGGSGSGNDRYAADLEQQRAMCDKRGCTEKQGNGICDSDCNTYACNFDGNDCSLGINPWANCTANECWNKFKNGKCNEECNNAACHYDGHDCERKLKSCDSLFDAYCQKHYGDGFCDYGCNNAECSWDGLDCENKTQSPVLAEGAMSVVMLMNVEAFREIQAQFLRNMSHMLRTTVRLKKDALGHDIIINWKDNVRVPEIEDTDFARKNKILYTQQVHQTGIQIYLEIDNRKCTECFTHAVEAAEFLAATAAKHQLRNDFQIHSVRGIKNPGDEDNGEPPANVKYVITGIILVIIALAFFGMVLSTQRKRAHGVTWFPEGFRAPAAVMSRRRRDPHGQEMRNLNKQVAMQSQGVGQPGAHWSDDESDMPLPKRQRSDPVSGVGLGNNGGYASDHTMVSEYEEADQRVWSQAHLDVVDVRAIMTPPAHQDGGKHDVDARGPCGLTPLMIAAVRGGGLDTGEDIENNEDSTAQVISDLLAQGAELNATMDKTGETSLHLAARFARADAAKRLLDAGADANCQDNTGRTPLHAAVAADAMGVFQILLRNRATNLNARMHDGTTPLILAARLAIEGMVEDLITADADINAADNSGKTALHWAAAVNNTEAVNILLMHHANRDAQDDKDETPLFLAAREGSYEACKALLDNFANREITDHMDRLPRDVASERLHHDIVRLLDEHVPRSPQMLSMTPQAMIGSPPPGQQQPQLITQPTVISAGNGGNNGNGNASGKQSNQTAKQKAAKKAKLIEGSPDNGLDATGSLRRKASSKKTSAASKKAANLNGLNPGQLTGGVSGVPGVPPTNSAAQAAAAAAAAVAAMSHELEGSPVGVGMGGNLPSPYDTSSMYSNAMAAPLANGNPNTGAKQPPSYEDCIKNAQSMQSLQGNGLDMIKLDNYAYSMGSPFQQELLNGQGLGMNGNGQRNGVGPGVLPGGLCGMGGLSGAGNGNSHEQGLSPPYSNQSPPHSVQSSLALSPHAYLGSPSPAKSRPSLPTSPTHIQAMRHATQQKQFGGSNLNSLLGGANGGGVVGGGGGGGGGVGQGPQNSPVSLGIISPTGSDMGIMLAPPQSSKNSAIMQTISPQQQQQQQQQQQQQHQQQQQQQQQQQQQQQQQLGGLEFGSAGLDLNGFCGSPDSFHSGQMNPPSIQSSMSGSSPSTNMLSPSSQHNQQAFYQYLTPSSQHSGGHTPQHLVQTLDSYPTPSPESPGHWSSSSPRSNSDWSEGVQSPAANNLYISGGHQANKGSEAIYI
Protocol: Stable lines of EGFP-labeled Notch cells were added to stable lines of tomato tagged Ser-expressing cells, allowed to mix for 24 hours at room temperature and were assayed for the formation of interacting cellular aggregates (Fehon et al., 1990, Cell 3:523-534). The Notch expressing cells were transiently transfected with tomato-tagged Ser DNA at concentrations ranging between 0.0 μg and 2.0 μg prior to mixing with Ser expressing cells to induce cis-inhibition by co-expressed Ser with Notch. When performed with wild type Ser DNA (A of this figure), effective inhibition of aggregation occurs in a dose dependent manner when the Ser expressing cells (Ser labeled columns) are mixed with the transfected Notch cells. When Ser expressing cells are not mixed with the transfected Notch cells (S2R+), self-aggregate formation is minimal.
S2 cells stably expressing tomato-tagged Ser (Sertom) were mixed with S2 cells stably expressing EGFP labeled Notch and allowed to aggregate with one another to determine baseline levels of Notch-Ser interactions (FIG. 6). Subsequent experiments transiently transfected the stable Notch EGFP line with either Sertom (wild type), SerDel6tom or SerDel3tom transgenes at varying concentrations to promote cis-inhibition within the Notch-expressing cells. […]

[2] = molecular target: T2, endogenous Drosophila Notch (wing imaginal disc) (Drosophila, UniProt P07207 53-2703); test: summing-up sentence; inferred from trans-activation in wing discs and aggregation assays
T2 construct: whole, on cells; also called Notch receptor
T2 sequence (P07207 53-2703): as above
Protocol: To define potential inhibitory domains in the extracellular domain of the Notch ligands, a systematic deletion analysis of an extracellular region of the Drosophila Notch ligand Ser was performed. Ser has 14 ELRs in its extracellular domain (FIG. 4) and has been the ligand best explored for its inhibitory properties (Klein et al., 1997, Dev. Biol. 1:123-134; Li and Baker, 2004, BMC Dev. Biol. 5). […] Using the Gal4ptc promoter, the influence of ectopic Ser expression on Notch activity was measured by examining how it affects the expression of CUT, a transcriptional target of Notch signals and is a classic indicator of Notch activity in the dorsal/ventral boundary and ventral region of the wing disc (Doherty et al., 1996, Genes Dev. 4:421-434).
Ser constructs were expressed in the third instar imaginal wing disc via the ptc promoter using the Gal4 system (Brand and Perrimon, 1993, Development 2:401-415). Notch activity was assessed by examination of CUT expression induced in response to Notch activity (Neumann and Cohen, 1996, Development 11:3477-3485). […]

- binding result [1]: binds
B1: tomato-tagged Ser (Sertom), wild type Drosophila Serrate (ligand)
chain: GNFELEILEISNTNSHLLNGYCCGMPAELRATKTIGCSPCTTAFRLCLKEYQTTEQGASISTGCSFGNATTKILGGSSFVLSDPGVGAIVLPFTFRWTKSFTLILQALDMYNTSYPDAERLIEETSYSGVILPSPEWKTLDHIGRNARITYRVRVQCAVTYYNTTCTTFCRPRDDQFGHYACGSEGQKLCLNGWQGVNCEEAICKAGCDPVHGKCDRPGECECRPGWRGPLCNECMVYPGCKHGSCNGSAWKCVCDTNWGGILCDQDLNFCGTHEPCKHGGTCENTAPDKYRCTCAEGLSGEQCEIVEHPCATRPCRNGGTCTLKTSNRTQAQVYRTSHGRSNMGRPVRRSSSMRSLDHLRPEGQALNGSSSSGLVSLGSLQLQQQLAPDFTCDCAAGWTGPTCEINIDECAGGPCEHGGTCIDLIGGFRCECPPEWHGDVCQVDVNECEAPHSAGIAANALLTTTATAIIGSNLSSTALLAALTSAVASTSLAIGPCINAKECRNQPGSFACICKEGWGGVTCAENLDDCVGQCRNGATCIDLVNDYRCACASGFTGRDCETDIDECATSPCRNGGECVDMVGKFNCICPLGYSGSLCEEAKENCTPSPCLEGHCLNTPEGYYCHCPPDRAGKHCEQLRPLCSQPPCNEGCFANVSLATSATTTTTTTTTATTTRKMAKPSGLPCSGHGSCEMSDVGTFCKCHVGHTGTFCEHNLNECSPNPCRNGGICLDGDGDFTCECMSGWTGKRCSERATGCYAGQCQNGGTCMPGAPDKALQPHCRCAPGWTGLFCAEAIDQCRGQPCHNGGTCESGAGWFRCVCAQGFSGPDCRINVNECSPQPCQGGATCIDGIGGYSCICPPGRHGLRCEILLSDPKSACQNASNTISPYTALNRSQNWLDIALTGRTEDDENCNACVCENGTSRCTNLWCGLPNCYKVDPLSKSSNLSGVCKQHEVCVPALSETCLSSPCNVRGDCRALEPSRRVAPPRLPAKSSCWPNQAVVNENCARLTILLALERVGKGASVEGLCSLVRVLLAAQLIKKPASTFGQDPGMLMVLCDLKTGTNDTVELTVSSSKLNDPQLPVAVGLLGELLSSRQLNGIQRRKELELQHAKLAALTSIVEVKLETARVADGSGHSLLIGVLCGVFIVLVGFSVFISLYWKQRLAYRTSSGMNLTPSLDALRHEEEKSNNLQNEENLRRYTNPLKGSTSSLRAATGMELSLNPAPELAASAASSSALHRSQPLFPPCDFERELDSSTGLKQAHKRSSQILLHKTQNSDMRKNTVGSLDSPRKDFGKRSINCKSMPPSSGDEGSDVLATTVMV
notes: The tomato tag is an internal insertion in the intracellular domain; also called Ser+Tomato; Ser Bsp tom; not shown: fluorescent tomato tag (Shaner et al., 2004), INSERTED within the intracellular domain at the Bsp EI site of the Ser cDN

- binding result [2]: binds
B2: wild type Drosophila Serrate (Ser), UAS-Ser transgene (ligand)
chain: B1 chain
notes: also called wild type Ser
